Measured values: a protein production outcome set (Wang et al. 2014)

Experiment: label from the status in PepcDB records
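Further: failed if final PepcDB status was selected cloned or expressed and not failed if soluble or beyond.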

Sequence | protein production
MSTPDATSPGSQQQDVFDFLGRGAGDAPVVRIDTHGAAVFLEGNRAMKIKRAVKFPFLDYSTLAKRKIACEQELEVGHRFAPTIYRRVVPITRTDKGALQIGGEGPAVEWAVEMMRFDDSATLDHLARAGSLGPGLIDAVADAIAASHQAAPLAATAPWGASIEPILADDTNELAAGGFAAADVAALDNGSRNALGRLRPLLEQRGVAGFVRWCHGDLHLANIVVIDGKPTLFDAIEFDPALASVDVLYDLAFPLMDLLHYGRGSDSAQLLNRYLAVTNADNLDALSALPLLLSMRAAIRAKVMLARPAADETIRRANRAIAESYFELALRLIAPPPPRLIAVGGLSGTGKSVLARALSGNVPPLPGAVVLRSDVARKRLHGVADTERLPATAYTTEVTEAVYRGLVERAAHILKQGHSVIVDAVFSKPEERDAIESVAAGLGISFHGLFLTADLATRVARVAGRTADASDATPEIVRQQQSYAQGVIGWTSIDAGGTPAETLSRAVAALPQTAQVCSTLEHHHHHH | not failed
MNLPKVKMLQVSKCLIGLAVMMLQSCDVADNRRDMLCGNWESVEGKPDVLIYKEGEAYKVTVFRRSGLRRKLKPETYLLQEENGNLFMNTGFRIDVSYNEATDVLTFSPNGDYVRVKPQPGHPTEE | failed
MPTLLNIQEFNKLNMNTILHITKRQQWEQAKNVGSYHADSLDTEGFIHSSKSIQILKVANRFFHHQTELVLLFIDSDQVKPEIRYEAADGDLFPHIYGELNLDAVYQVIDFEPGEDGLFEVPPEVVSLG | failed
MEDSTATATSSSSTHYFSIFTNYPLISAVTSFTIAQFIKLFTSWYRERRWDLKQLIGSGGMPSSHSATVTALAVAIGLQEGFGGSHFAIALILASVVMYDATGVRLHAGRQAEVLNQIVYELPAEHPLAESRPLRELLGHTPPQVCRHMT | failed
MKNGERARAGHGSPAAPGPTAGPGPAPAPGPTVVGREAEIAEIRSRIAADRSHSSVLIVEGDPGAGKSVLLDLAVRLTRGTGQRVLRAVGSESEASLAFAGLHQMLRPVLDDLGGLPARQRSALRTALGLAEDAEDAADTPDALLVGLAVLTLVSDLSEPAPLLVVVDDAQWIDRASLDVLSFLARRMAGEPVTLLMGVRAAAVLPGFDKGYERLEIGPLSGDAANRLLDEQPKRPTGRTRARILREAAGNPLALVELARATADREPEGSGVEGPLPVTDRLEGIFARHVRHLPEATRRALLLLAAADAADAPAAARGLPEAADTVWAPAERAGLVRQDGTGVSFRHPLVRSAVYHAAPFEQRRRAHLALARQLGEEPDRRAWHLAAAAVRPDEQVSAALRETAGRARRRGGHAAAAAALERAAELSPHRADQARLLADAADTAVFTGQLGWVEHLAAGARERSDDPALIGRAALATGRLLTLGPHHTAAFALLSRVADEAAATRSPRLLDALAAAAVVRYYSGEESQRQRIEALLADVPDSAAGGALRAWVLAVSDPSGAGASLAPALPRLIAAAKGEAGSLTALAVVAWLLDRTPLAARTFDEAFGRWQAHGPLPAGLACAAGWAYLEQGRWADARSVAAEIAEVASGAGLDHAEACARTLDATVLALLGEPAEARGSAERALALVAPLESRSVAVLARRALGLAAVAEGDYDSAYAQFRAAFTEDGDLVHYHVSPTVLAELAAAAVRRGHREPAARLLERSARHLGPGMSARLFLLVERGRALLAEPERAERHFRAALAGEAGEQWPFERAQTRLDYGEWLRRQRRVAEARPLLTGALDTFRRLGARPWIDRAKAELRAAGIEADAAAPGALTELSPQQQQIVRLAAHGLTNREIGERLFLSPRTVGSHLYRVFPKLGITARAQLRDLLDDALQATGSAQ | failed
MATSRLQLEGDDSVHLHITHANLKSFSADARFSPQMSVEAVKEKLWKKCGTSVNSMALELYDDSGSKVAVLSDDSRPLGFFSPFDGFRLHIIDLDPSSVTTGGWLEDTSLVEKYNISEEDYAKRTDSFRKFKEKRVSQNPVAAEAKTKENYMEDLCANIKVGDRCQVEPGEKRGMVKYVGRAESLGPGYWVGIQYDEPLGKHDGMVKGTRFFECPRLQGGMVRPDKVKVGDYPERDPFEEDEI | failed
MFERFTEKAIKVITLAQEEARRLGYNFFGTEHILLSLIGEGTGIAAKVLKSMGINLKDARVEVEKIIGRGSGFVVVEIPFTPRKACAGFVTRGSSTTRHKGIAVRVLEILGADPSNIRTQVNAPILVNSQQALVAEVMETATWQVGNTRRGKLDPVVGRQPQIKRVVQILARRTCRNNACLIGKPGVGKRAIAEGIAQRIASGDVPETIKGKMNVAGNCGWNEIRWRSRGKIEEVYGQSDDIILFIDEMHLLIGAGAVEGAIDAANILKPALERCELQYRKHIENDPALERRFQPVKVPEPTVEEAIQITTVLAKGKEVNKADNEAEEGRPTVTEADNEAE | failed
MTEDTADSGTGGRGPTRRHLVRRALALGGALAVAPFPAGPAKAVPPPRHPHRTLRHGSPERAGLLPDHLRGLVTDAESFLGPSPTHPWYAGAVLLAGRGDTVALHQPIGTAVRYSAYDAKTDTGVEFPAERQIPMATDTVFDLASVSKLFTSLLAVQQLERGALELEARVASYLPDFAGAGKQDVTIRQLLTHTSGFRAWLPLYKAPSRAEKLRLIWNEAPLSPPGTKYLYSDLNLISLQLVLEEITGHPLDALLRDEITAPLGLRSTRYNPPAAWKPRIAATEDARPPWSGLDRGLVWGEVHDENAFGFGGVAGHAGVFSCAWDLAVLGRTLLNGGTYGHTRILAPESVELLFTDFNTAFPGDEHGLGFELYQHWYMGAMATPRTAGHTGFTGTSLVLDPTTDSFLIVLGNSVHPVRTWRSGSAPRAAAGNHLARAVQVRPARGRTSWFSGMATAASATLTLPELDTAGTADTAETTGTADSTTADSGGRLRCALWWDTEPRSDTLFLEASADDGASWQPVPFTTACDGEEAREHPTGSVTGWSGRVWHRLHADLPRARRLTLRWRYTTDRLYVGRGAYVDAVRVESGGRVLFDEARPTDAARIEAAGWTPSEN | failed
MIIESRIEKGKPVVGMETTVFVHGLPRKEAIELFRRAKEISREKGFQLAVIGILKGKIVAGMSEEELEAMMREGADKVGTREIPIVVAEGKNAATTVSATIFLSRRIGIEVVVTGGTGGVHPGRVDVSQDLTEMSSSRAVLVSSGIKSILDVEATFEMLETLEIPLVGFRTNEFPLFFSRKSGRRVPRIENVEEVLKIYESMKEMELEKTLMVLNPVPEEYEIPHDEIERLLEKIELEVEGKEVTPFLLKKLVEMTNGRTLKANLALLEENVKLAGEIAVKLKRS | not failed
MDGVGAHAHTGELRSAQALRSASLWLWPLLCWALLAGWPLGAHPLKHTAYHTVTRWDMDDGLPHNLVHAVAQGSDGVIWLGTWEGVARFNGRDFTVFDRQNTPGVELGGVFVVVRDGDGMLFGTAFDGVYRHQDGRWQQLGDASARHLAVSALLRRADGALWVGTPQTLYRIELDGRVVDVGRQAGLPRARITALSTDARGDLWIGTDVGLYQLPLGASAATAWGQAHGMADTPVRRLASDRQGGLLVAGDDGVWWWSRGGGLQRFRQGQRVDSLVMDRSGHLWMSLSAGTLVVHSGPDDPDEQIAISGVASPALLEDAEGLIWVGSTHGLFRVAEGAAHGVTIDDGLASDYVRSVLQTADGTVWVGSAVGLDRWRDGQIARVPFSRGSAGRVLEQSVLALADAGDGGVWAGTYSQGVLRLDAQGAVVQRIGAAEGLSSLSVRAVLPDGDALWIGTTAGLVRWHDGRARRYTAADGVPDGSVQVLYRDAQGTIWSGTDRGMTALSPDGGTRAWLGEQDFPGQNAFDFLRDPSGDLWIASDRGLLRLRGERFQVYDHRVGLPRDKVFRVIDDGRGYLWLSSNHGVFRIARRDFDQIDAGTREQLSVEVVDRSDGMPGNQGNGSSAPAGWLTQTGQLLFPTAAGLGVIDPARVGTLQGHRVPIVIERLVVDGMVQPLDGPHRLSADTRRIAIGYAGLNFRGPDKVRYRYRLDGFDPDWVDADSATEAVYTNLPPGRFRFRVQAMSLPVDWRQAALLGETSVVLELAPPWWRRGEVIGLGVLCLASVIYGFYLWRTASYRRRQRELNVVIDKRTRELSDKNLALQQASQEREALMRQLEYRASHDVLTALPNRREAERVLQQWLDEAQAGGAPLALALADIDHFKRINDAHGHEVGDAVLRAVGEVLADQEHAHCFAARHGGEEFLLAVTGLEAAHARALFEQQRQRLGTIAIAADEATVQCTASMGMAMSNEAHSRRELLALADRRLYHAKRQGRDRLIDQ | failed
MSLSKKIAVIGECMIELSEKGADVKRGFGGDTLNTSVYIARQVDPAALTVHYVTALGTDSFSQQMLDAWHGENVDTSLTQRMENRLPGLYYIETDSTGERTFYYWRNEAAAKFWLASEQSAAICEELANFDYLYLSGISLAILSPTSREKLLSLLRECRAKGGKVIFDNNYRPRLWASKEETQQVYQQMLECTDIAFLTLDDEDALWGQQPVEDVIARTHNAGVKEVVVKRGADSCLVSIAGEALVDVPAVKLPKEKVIDTTAAGDSFSAGYLAVRLTGGSAENAAKRGHLTASTVIQYRGAIIPREAMPAEGHHHHHH | not failed
MIDHRPTSWSRLCTALTSGASCTIGGQAVMEGVMMRNGDRLAIAMRRPDGEIVAESRPWFSLTRSAWLKRPFVRGFPILVETLVNGIKALNRSAEQAVEGETGEELKPWQLAATLAVSVAMALGLFVVVPHLFSIGMKLLGLGGDVEGLSFHMWDGFFKFAVFIGYIVAISFVPDIRRVFQYHGAEHKVIRAFEAAGDVTPDTAMHHSRLHPRCGTTFLLFVLSISIILHAVLVPLLMLVWTPSGAFAKHGVTVLFKLLLMIPISALAYETIRYAARLGEGLTGTLLRAPGMLLQKLTTGEPDREQLEVAIVALREALGDDAPQSVRAPAYRHLE | failed
VFEQELENGLRLFIIPKPGFQKTFVTYTTQFGSLDNQFKPLGQDQFVTVPDGVAHFLEHKLFEKEEEDLFTAFAEDNAQANAFTSFDRTSYLFSATDNIENNIKRLLTMVETPYFTKETVDKEKGIIAEEIKMYQEQPGYKLMFNTLRAMYQRHPIRVDIAGSVESIYDITKDDLYLCYETFYHPSNMVLFVVGDVNPEEICRIVKQH | failed
MSDKRNPRISSRKQPQQARSSELVASILEAAVQVLASEGAQRFTTARVAERAGVSIGSLYQYFPNKAAILFRLQSDEWRRTTRLLGEILEDTTRPPLERLRRLVLAFVRSECEEAAIRVALSDAAPLYRDADEAREVKAEGARVFQAFLREALPEVAEAERSLAGDLLTTTLGAVGKQFSEQPRSEAEIERYAEALADMLCAYLAALGER | not failed
MKTLFWRTLVVIFIILGVIGAILPGMPTTVFLILAAWAASKGWPEMDEWLLNHPKYGPTLRDWRAHGTVPRKAKWIASIMMLISAIMMLFTNAPFWVKVFTDTTMLIVAIWLWLRPEPVKLPLESPTLHQNTEDEHV | failed
DITERKQAESALQESEARFQAFMNNSPSASWITDDHGRMLYLSQTYVRTFQLPFDKVEDVTGKTVFELYTPEVAQPFLDNIHRVAQTQQILETIEKAPRLDGTLGDFLVYKFPLPATT | failed
MKELAGKNLGVTTRFVLRYVFQNTIHSIWRERNERRHGEKPSRTEKIVKLIDKNIRNRLSTIRVRGEEKYAQGTQMRFASRQYQIDRTFL | failed
MTVIIAGERSGAGKTTITLAMLAYLARQKLRVQSFKVGPDYIDPMFHSQITGRPCRNLDPFLTSEAYVQRCFHYHSQGTPYSLIEGVMGLFDGVPYQGLTDYSSTAHIARLLNLPIVFVMDCQRLSGSVAAIVQGYRHWQPGVNLVGVILNRVGGDRHLELLKIALEPLRIPILGVFFRQQDLTLPDRHLGLVPCGELPQIQQYFDQLAHVAAQQLDWPKLLPLLETPRNLPSPMSLFDVPQKSPQARLAIAQDQAFNFYYADNLDLLTHCGFELIPFSPLEDTELPPAIDGVYLGGGFPELFAEQLSQNQALKDQLKTLIHQGLPTYGECGGLMYLSQSLTNFEGQIFPMLEMLPTAVTMGGKLSLGYRQAQVVNSHSWLWQTESLRGHEFHRSQMTKLPNQALYRQRGLLAIDQNTTDGWCVGSVQASYLHLHWGSQISTVEKFRAACLAFQKKLSYLGKHPPFKSVPLRNTGGDAHGRE | failed
